System: putative Thermus thermophilus Pol III ε-subunit

For “Thermus thermophilus DNA Pol III α-subunit (DnaE)”, the “3′→5′ exonuclease activity” value was “This interaction stimulates the 3′→5′ exonuclease activity 5 fold”.
